According to publication PMC11077971 (mBio, 2024):

Tests used:
E. coli BirA = molecular target: T1, E. coli BirA (Escherichia coli, UniProt P06709); assay: HPLC-MS of biotinylated BCCP core; assay type: biochemical; conditions: apo-BCCP core (BC1) as acceptor protein, 10 µM biotin, 0.3 mM ATP, 5 mM MgCl2, pH 8.0, 37 °C
T1 construct: Met1-Lys321, N-terminal His6 tag (pET28a), E. coli BL21(DE3)

[1] = molecular target: T2, ACC complex (biotinylated BC1 with CTβ-CTα) (Chloroflexus aurantiacus, UniProt A9WBQ8+A9WBQ9); assay: HPLC and MS detection of malonyl-CoA; assay type: biochemical; conditions: 10 mM acetyl-CoA, 40 mM bicarbonate, 1 mM ATP, 5 mM MgCl2, pH 9.0, RT
T2 construct: gene accD; His6-tagged, E. coli BL21(DE3); with Biotin carboxylase (acetyl-CoA carboxylase, biotin carboxylase; fused BC-BCCP)

[2] = molecular target: the molecule itself; assay: AUC + SEC; sedimentation velocity, 42,000 rpm, 20°C, initial A280 ~0.7, Sedfit; gel filtration on a Superdex 200 column
purified protein [3] = substrate: O=C(O)CCCC[C@@H]1SC[C@@H]2NC(=O)N[C@@H]21; assay: purified protein; conditions: apparent Km, free biotin as carboxyl acceptor, 40 mM bicarbonate, 2 mM ATP, 8 mM MgCl2, 100 mM Hepes pH 8.0, 25 °C
purified protein [4] = substrate: O=C(O)O; assay: purified protein; conditions: apparent Km, 40 mM biotin, 2 mM ATP, 8 mM MgCl2, 100 mM Hepes pH 8.0, 25 °C
[5] = molecular target: the molecule itself; assay: crystal structure; hanging-drop vapor diffusion at 16°C; BC1 at 6.5 mg/mL, BC2 at 10 mg/mL in 20 mM Tris-HCl pH 8.0, 150 mM NaCl, 2 mM MgCl2; molecular replacement

T1 sequence (P06709 whole entry): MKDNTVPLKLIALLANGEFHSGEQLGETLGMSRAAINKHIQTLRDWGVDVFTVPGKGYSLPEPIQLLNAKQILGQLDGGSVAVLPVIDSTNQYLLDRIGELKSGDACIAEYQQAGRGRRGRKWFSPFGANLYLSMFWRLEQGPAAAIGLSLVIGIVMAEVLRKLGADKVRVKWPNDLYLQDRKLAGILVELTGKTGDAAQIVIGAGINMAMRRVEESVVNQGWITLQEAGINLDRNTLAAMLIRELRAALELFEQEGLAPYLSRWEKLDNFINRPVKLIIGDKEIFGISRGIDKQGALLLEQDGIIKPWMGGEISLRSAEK
T2 sequence (A9WBQ8 entry or part of it, one chain of several): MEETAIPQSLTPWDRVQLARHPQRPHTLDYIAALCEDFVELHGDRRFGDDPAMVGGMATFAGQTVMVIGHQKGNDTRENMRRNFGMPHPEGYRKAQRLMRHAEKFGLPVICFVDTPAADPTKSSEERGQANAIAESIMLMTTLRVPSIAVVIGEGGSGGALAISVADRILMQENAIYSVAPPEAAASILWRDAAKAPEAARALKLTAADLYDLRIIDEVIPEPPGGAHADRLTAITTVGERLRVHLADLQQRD
T2 sequence (A9WBQ9 24-305, one chain of several): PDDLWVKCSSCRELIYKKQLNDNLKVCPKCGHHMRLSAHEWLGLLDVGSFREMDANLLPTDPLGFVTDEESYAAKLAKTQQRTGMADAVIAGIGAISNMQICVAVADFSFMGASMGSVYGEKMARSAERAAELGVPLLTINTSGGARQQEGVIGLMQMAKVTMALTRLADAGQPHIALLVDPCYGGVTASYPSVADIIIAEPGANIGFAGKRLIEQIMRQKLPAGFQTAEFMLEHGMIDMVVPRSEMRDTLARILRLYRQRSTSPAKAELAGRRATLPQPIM

## O=C(O)CCCC[C@@H]1SC[C@@H]2NC(=O)N[C@@H]21 [biotin]
E. coli BirA
  HPLC-MS of biotinylated BCCP core: BC1-BCCP domain can be biotinylated by both E. coli and C. aurantiacus BirA

## CC(=O)SCCNC(=O)CCNC(=O)[C@H](O)C(C)(C)COP(=O)(O)OP(=O)(O)OC[C@H]1O[C@@H](n2cnc3c(N)ncnc32)[C@H](O)[C@@H]1OP(=O)(O)O [acetyl-CoA]
[1]
  HPLC and MS detection of malonyl-CoA: the reconstituted ACC complex is enzymatically active

B1: His6-BC1ΔBCCP (Met1-Glu452) (domain or fragment, Chloroflexus aurantiacus J-10-fl, UniProt A9W9X0 1-452, looked up)
chain: MFRTILVANRGEIALRVMRACRELGLRCVAVYSEADRDAPHVAYADDAFLIGPPSPAESYLNIDAIIRAAKATGAEAIHPGYGFLAENASFVRAVTAAGLIFIGPPAEAMERMGGKTAARREATAAGVPVVPGVLEPVTDAAEVRRLGKEFGYPIAIKAVGGGGGRGLRVVRSPEEVDEAFAAARREAEVAFKNGELYVEKYLDDPRHIEIQVLADRYGNAVALGERDCSVQRRHQKLIEECPSPALTPELRAEMGAAAVRLAKAVGYVSAGTLEFLFQDGRYYFLEMNTRIQVEHTVTEMVYGIDLVAAQIRIAQGEKLWFKQEDVVPRGHAIECRINAEDPLHNFRPALGTIGEYHEPVGFGVRVDSGVRAYYTVPSHYDSLLAKLITWGSDRQEAIARMRRALAEYRIEGVTTIIPFHQAALEHPVFTAGAATVNFIPRHPELFSRAAE
notes: BC domain of biotin carboxylase isoform BC1, Chloroflexus aurantiacus J-10-fl; also called BCCP-truncated BC1 mutant; not shown: His6, N-terminal, kept
[2]
  stoichiometry N: 2
Purified protein [3]
  Km: 17.1 ± 1.2 mM
  kcat: 15.6 s⁻¹
  kcat/Km: 920 M⁻¹ s⁻¹
Purified protein [4]
  Km: 7.4 ± 0.3 mM
  kcat: 14.3 s⁻¹
  kcat/Km: 1930 M⁻¹ s⁻¹

B2: BC1 (Chloroflexus aurantiacus J-10-fl) (protein)
chain: MFRTILVANRGEIALRVMRACRELGLRCVAVYSEADRDAPHVAYADDAFLIGPPSPAESYLNIDAIIRAAKATGAEAIHPGYGFLAENASFVRAVTAAGLIFIGPPAEAMERMGGKTAARREATAAGVPVVPGVLEPVTDAAEVRRLGKEFGYPIAIKAVGGGGGRGLRVVRSPEEVDEAFAAARREAEVAFKNGELYVEKYLDDPRHIEIQVLADRYGNAVALGERDCSVQRRHQKLIEECPSPALTPELRAEMGAAAVRLAKAVGYVSAGTLEFLFQDGRYYFLEMNTRIQVEHTVTEMVYGIDLVAAQIRIAQGEKLWFKQEDVVPRGHAIECRINAEDPLHNFRPALGTIGEYHEPVGFGVRVDSGVRAYYTVPSHYDSLLAKLITWGSDRQEAIARMRRALAEYRIEGVTTIIPFHQAALEHPVFTAGAATVNFIPRHPELFSRAAELTPPTAASAGAEPAPEPRRFTIEVNGRRFGVAVFGDGMNATPVASPSRSAPARRAAPKKTTLAAPVDAVISPIQGRVVAVRVAHGQQVEAGQVLFIVEAMKMENEITAPHSGTIAEVRVEVGTTVEAGAMLATYQNTANNTNGK
Purified protein [3]
  Km: 11.4 ± 0.2 mM
  kcat: 19.1 s⁻¹
  kcat/Km: 1670 M⁻¹ s⁻¹
Purified protein [4]
  Km: 4.5 ± 0.1 mM
  kcat: 20.7 s⁻¹
  kcat/Km: 4560 M⁻¹ s⁻¹

B3: Chloroflexus aurantiacus BC1 (His6-tagged, Met1-Lys596), not biotinylated in vitro (enzyme, Chloroflexus aurantiacus J-10-fl, UniProt A9W9X0 1-596, looked up)
chain: B2 chain
notes: biotin carboxylase isoform BC1 with fused BC (Met1-Glu452) and BCCP (Ala459-Lys596) domains, Chloroflexus aurantiacus J-10-fl, 596 residues; the pull-down control was; also called His6-BC1; unbiotinylated BC1; source: for the pull-down passed over streptavidin agarose to remove the biotinylated fraction; not shown: His6, N-terminal, kept
[5]
  stoichiometry N: 4

B4: BC1ΔBCCP^β-hairpin (BC1 lacking Thr473-Gly486) (enzyme, Chloroflexus aurantiacus J-10-fl, UniProt A9W9X0 1-596, looked up)
chain: MFRTILVANRGEIALRVMRACRELGLRCVAVYSEADRDAPHVAYADDAFLIGPPSPAESYLNIDAIIRAAKATGAEAIHPGYGFLAENASFVRAVTAAGLIFIGPPAEAMERMGGKTAARREATAAGVPVVPGVLEPVTDAAEVRRLGKEFGYPIAIKAVGGGGGRGLRVVRSPEEVDEAFAAARREAEVAFKNGELYVEKYLDDPRHIEIQVLADRYGNAVALGERDCSVQRRHQKLIEECPSPALTPELRAEMGAAAVRLAKAVGYVSAGTLEFLFQDGRYYFLEMNTRIQVEHTVTEMVYGIDLVAAQIRIAQGEKLWFKQEDVVPRGHAIECRINAEDPLHNFRPALGTIGEYHEPVGFGVRVDSGVRAYYTVPSHYDSLLAKLITWGSDRQEAIARMRRALAEYRIEGVTTIIPFHQAALEHPVFTAGAATVNFIPRHPELFSRAAELTPPTAASAGAEPAPEPRRFGDGMNATPVASPSRSAPARRAAPKKTTLAAPVDAVISPIQGRVVAVRVAHGQQVEAGQVLFIVEAMKMENEITAPHSGTIAEVRVEVGTTVEAGAMLATYQNTANNTNGK
notes: biotin carboxylase isoform BC1, Chloroflexus aurantiacus J-10-fl, with the β-hairpin motif Thr473-Gly486 deleted; Vector pET28a-bc1Δbccp^β-hairpin; source: E. coli BL21(DE3), purified
[2]
  stoichiometry N: 2

B5: His6-BC1ΔBCCP^Core (Met1-Lys510) (domain or fragment, Chloroflexus aurantiacus J-10-fl, UniProt A9W9X0 1-510, looked up)
chain: MFRTILVANRGEIALRVMRACRELGLRCVAVYSEADRDAPHVAYADDAFLIGPPSPAESYLNIDAIIRAAKATGAEAIHPGYGFLAENASFVRAVTAAGLIFIGPPAEAMERMGGKTAARREATAAGVPVVPGVLEPVTDAAEVRRLGKEFGYPIAIKAVGGGGGRGLRVVRSPEEVDEAFAAARREAEVAFKNGELYVEKYLDDPRHIEIQVLADRYGNAVALGERDCSVQRRHQKLIEECPSPALTPELRAEMGAAAVRLAKAVGYVSAGTLEFLFQDGRYYFLEMNTRIQVEHTVTEMVYGIDLVAAQIRIAQGEKLWFKQEDVVPRGHAIECRINAEDPLHNFRPALGTIGEYHEPVGFGVRVDSGVRAYYTVPSHYDSLLAKLITWGSDRQEAIARMRRALAEYRIEGVTTIIPFHQAALEHPVFTAGAATVNFIPRHPELFSRAAELTPPTAASAGAEPAPEPRRFTIEVNGRRFGVAVFGDGMNATPVASPSRSAPARRAAPK
notes: biotin carboxylase isoform BC1 without the BCCP core, Chloroflexus aurantiacus J-10-fl; The cloning of this construct is not described in the methods; source: E. coli BL21(DE3), purified
[2]
  stoichiometry N: 4

B6: Chloroflexus aurantiacus BC2 (His6-tagged, Met1-Val455) (enzyme, Chloroflexus aurantiacus J-10-fl, UniProt A9WKH8 1-455, looked up)
chain: MIRKVLVANRGEIAVRIIRACQELGIRTVVAYSTADRDSLAVRLADEAVCIGPPPAAKSYLNAPALISAALVSGCDAIHPGYGFLSENPYFAEMCADCKLTFIGPPPEPIRLMGDKAIGRETMRKAGVPTVPGSDGEVRSLEEAIDVARQIGYPVLLKPSGGGGGRGMRVAYDEADLQRAFPTARAEAEAAFGNGALLLEKYLTRVRHVEIQVLADQYGHAIHLGERDCSAQRRHQKIVEEAPSPAVTPELRERMGADAVRGIKSIGYVNAGTLEFLLDQDGNYYFIEMNTRIQVEHPVTEQVTGIDLVRWQLLIASGERLTLRQEDIKITRHAIECRINAEDPERDFLPASGEVEFYLPPGGPGVRVDSHLYSGYTPPGTYDSLLAKIITFGDTRDEALNRMRRALNECVITGIKTTIPFQLALIDDPEFRAGRIHTGYVAELLRQWKETLNPV
notes: biotin carboxylase isoform BC2, Chloroflexus aurantiacus J-10-fl, 455 residues; Met1-Val455 is called full-length; also called His6-BC2; biotin carboxylase isoform 2; not shown: His6, N-terminal, kept
Purified protein [3]
  Km: 14.8 ± 2.2 mM
  kcat: 16.7 s⁻¹
  kcat/Km: 1160 M⁻¹ s⁻¹
Purified protein [4]
  Km: 6.7 ± 0.9 mM
  kcat: 16.2 s⁻¹
  kcat/Km: 2380 M⁻¹ s⁻¹
[5]
  stoichiometry N: 2
